According to the supplement of paper PMC12764529:
± gives the half width of the 95% confidence interval.

Tests used:
[1] = folding stability dG unfold from trypsin proteolysis; higher = more stable
In short: (§1)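 How resistant each design was to proteolysis was captured as K50, inferred by Bayesian fitting of sequencing counts. Unfolding free energy was then derived relative to a sequence-predicted unfolded-state K50 and a shared folded-state K50, per protease or combined. Digestion used trypsin and chymotrypsin at 11 threefold-diluted concentrations plus a no-protease condition, on mini-proteins under 80 residues without cysteine in a PA-tagged cDNA display construct. Designs were kept only when AlphaFold2 dimer inter-PAE was above 15.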

[2] = folding stability dG unfold from chymotrypsin proteolysis; higher = more stable
In short: as §1

[3] = folding stability dG unfold (combined trypsin and chymotrypsin); higher = more stable
In short: as §1

SAGGSKAKIVEAEIVEFDPEKGKITIRIKANGKTFEIEFPPGVKKIKLKVKLENGEEKEIEITIKPSAGGSA [r2_132_TrROS_Hall]
folding stability dG unfold [1]: 1.85 ± 0.044 kcal/mol
folding stability dG unfold [2]: 3.01 ± 0.14 kcal/mol
folding stability dG unfold [3]: 2.59 ± 0.16 kcal/mol

SAGGSKEYEVKIVKIKEVKVENGKVYIKLEVEVRDKKTGKLLPSAEELAKELKKKFPNLKIEVKKPSAGGSA [r2_27_TrROS_Hall]
folding stability dG unfold [1]: 2.24 ± 0.13 kcal/mol
folding stability dG unfold [2]: 2.4 ± 0.12 kcal/mol
folding stability dG unfold [3]: 2.42 ± 0.24 kcal/mol

SAGGSKIEVKIEEENGTLTITVTVYDENGEQIAEITVTITLPAPKPPEKELVKAESPEEKEEALKQSAGGSA [r2_332_TrROS_Hall]
folding stability dG unfold [1]: 2.25 ± 0.12 kcal/mol
folding stability dG unfold [2]: 1.8 ± 0.12 kcal/mol
folding stability dG unfold [3]: 1.65 ± 0.35 kcal/mol

SAGGSKIKELLDAIKKAIEEGKEEVTIEVTLPNGSKIKFYPDGTIEITNKNGEKKTIKIKADDIKPSAGGSA [r2_97_TrROS_Hall]
folding stability dG unfold [1]: 2.29 ± 0.23 kcal/mol
folding stability dG unfold [2]: 1.44 ± 0.1 kcal/mol
folding stability dG unfold [3]: 1.99 ± 0.27 kcal/mol

SAGGSKIQISIWEDPENDYTWVTIWFPDDEELVDFFVEDIADLGVKKVETERFPDNGWRRITILIRSAGGSA [r2_358_TrROS]
folding stability dG unfold [1]: 2.43 ± 0.063 kcal/mol
folding stability dG unfold [2]: 3.27 ± 0.066 kcal/mol
folding stability dG unfold [3]: 2.97 ± 0.12 kcal/mol

SAGGSKKEIEALKGKTVTFPKIRDPKTNELLEPVKVKIVEVKYDKDTKKIYIKVEVDGKIYTFEIDSAGGSA [r2_314_TrROS_Hall]
folding stability dG unfold [1]: 0.868 ± 0.19 kcal/mol
folding stability dG unfold [2]: 2.85 ± 0.062 kcal/mol
folding stability dG unfold [3]: 2.5 ± 0.37 kcal/mol

SAGGSKKIVKEMKSKEVIDLAKKLKEKKDIIIVVKLNGKVKVLDLDKVKPIPDKNVKAIIEIKPKKKSAGGS [r16_628_TrMRF]
folding stability dG unfold [1]: 0.571 ± 0.22 kcal/mol
folding stability dG unfold [2]: 0.901 ± 0.094 kcal/mol
folding stability dG unfold [3]: 0.745 ± 0.29 kcal/mol

SAGGSKKKEEVKEIDVVLVEVSEEEALKLAEETGKAVIVVFPDGELRIFYPDGTVETIKLPDLEELSAGGSA [r2_34_TrROS_Hall]
folding stability dG unfold [1]: 0.377 ± 0.062 kcal/mol
folding stability dG unfold [2]: 0.0647 ± 0.082 kcal/mol
folding stability dG unfold [3]: 0.296 ± 0.21 kcal/mol

SAGGSKKPKKIIVIEIPENMTEEEIKKLAEELAKKLNIKKIVKIEKKKDGSVRIVLETKDGKKIEFSAGGSA [r2_168_TrROS_Hall]
folding stability dG unfold [1]: 2.3 ± 0.089 kcal/mol
folding stability dG unfold [2]: 2.84 ± 0.035 kcal/mol
folding stability dG unfold [3]: 2.63 ± 0.16 kcal/mol

SAGGSKKTIELVIKDKKTNKWLKITIEYDEETGEVTVTIYDKNGEVVKEIKMSKDELKKLLEKLGFSAGGSA [r2_115_TrROS_Hall]
folding stability dG unfold [1]: 3.02 ± 0.22 kcal/mol
folding stability dG unfold [2]: 4.37 ± 0.16 kcal/mol
folding stability dG unfold [3]: 4.28 ± 0.36 kcal/mol

SAGGSKKTYIVDSPEEIAKLIESIPEEEYVFAIKGRPDGKPVVEIYSKENIEEAIKENPEIIIPVGSAGGSA [r2_351_TrMRF]
folding stability dG unfold [1]: 0.287 ± 0.058 kcal/mol
folding stability dG unfold [2]: 0.641 ± 0.068 kcal/mol
folding stability dG unfold [3]: 0.479 ± 0.11 kcal/mol

SAGGSKKVPIKVKIEVYNKNGEKMTLEELLKKLEENAKVEKDEKGRLTLYIVNKKTNKIVKIEVEKSAGGSA [r2_234_TrROS_Hall]
folding stability dG unfold [1]: 1.74 ± 0.18 kcal/mol
folding stability dG unfold [2]: 1.92 ± 0.19 kcal/mol
folding stability dG unfold [3]: 1.72 ± 0.27 kcal/mol

SAGGSKLTVEEIKKLFPNVEVTKKEDGTYEMRVTVEVTLPNGEKKKVEVTVKVEVKDGKIVKVEVTSAGGSA [r2_104_TrROS_Hall]
folding stability dG unfold [1]: 2.44 ± 0.15 kcal/mol
folding stability dG unfold [2]: 3.17 ± 0.092 kcal/mol
folding stability dG unfold [3]: 2.9 ± 0.12 kcal/mol

SAGGSKMEPGPVKIKVTDGGEEHTFDFQVSVMPDPDGRPMIMFSFPDGNPLSIPLDDAEKITDIEVSAGGSA [r2_297_TrROS]
folding stability dG unfold [1]: 0.322 ± 0.11 kcal/mol
folding stability dG unfold [2]: -0.141 ± 0.29 kcal/mol
folding stability dG unfold [3]: 0.106 ± 0.18 kcal/mol

SAGGSKPIRVEIAVPPDVPLEELARRVEEELRELGFEVEVEEVSFLPEEGRVLLRFRDGAVAVIPNSAGGSA [r2_242_TrMRF]
folding stability dG unfold [1]: 1.8 ± 0.022 kcal/mol
folding stability dG unfold [2]: 1.85 ± 0.062 kcal/mol
folding stability dG unfold [3]: 1.86 ± 0.068 kcal/mol

SAGGSKPTVTLELYIEVPEEELSEEEIKKLLEELAKELNLEVEVTVEVEEKDGKLIVKVTVTIKKPSAGGSA [r2_172_TrROS_Hall]
folding stability dG unfold [1]: 2.15 ± 0.19 kcal/mol
folding stability dG unfold [2]: 2.28 ± 0.14 kcal/mol
folding stability dG unfold [3]: 2.25 ± 0.25 kcal/mol

SAGGSKPVYKVKIEIEFNGKKIEIEIEAETEEEAKKAVEELLKKLFEENKDNLKIKVEVEKLPEKPSAGGSA [r2_111_TrROS_Hall]
folding stability dG unfold [1]: 2.95 ± 0.15 kcal/mol
folding stability dG unfold [2]: 3.15 ± 0.2 kcal/mol
folding stability dG unfold [3]: 3.11 ± 0.12 kcal/mol

SAGGSKSKIISASVFTTPDGEKVGVIKVLVKDPNGNPHLVIATIYSDGKIKVSVYYNGKVYTFEFDSAGGSA [r2_182_TrMRF]
folding stability dG unfold [1]: 2.41 ± 0.079 kcal/mol
folding stability dG unfold [2]: 3.95 ± 0.037 kcal/mol
folding stability dG unfold [3]: 3.52 ± 0.12 kcal/mol
